Assays:
[1] = test system: miRNA expression in RAW264.7 cells; assay: qRT-PCR of osteoclast miRNA expression after sICAM1 treatment; type: cell-based, murine; conditions: for sICAM1-induced miRNA expression changes: 50 ng/ml sICAM1, 20 μM inhibitor, 6 days
Description: (§1) mRNA was analyzed by synthesizing cDNA using the Superscript III First-strand kit (Invitrogen) and qPCR performed using the Power SYBR® green PCR master mix (Applied Biosystems). Mature miRNAs were reverse transcribed using the TaqMan Reverse Transcription Kit (Applied Biosystems) followed by real-time PCR using TaqMan miRNA assays (Applied Biosystems). All analysis was performed using an ABI 7900HT PCR machine according to the manufacturer's instructions. A standard curve was created from serial dilutions from cDNA for each gene of interest. Values were normalized by the expression of GAPDH or RNU6B in each sample.

RANKL = assay: cell-based or functional assay
[2] = test system: osteoclast marker genes in RAW264.7 cells; assay: qRT-PCR of osteoclast marker genes; type: cell-based, murine; conditions: sICAM1 together with 50 ng/ml RANKL versus RANKL alone
Description: as §1

RAW264.7 cells [3] = assay: Chemotaxis assay of RAW264.7 cells; type: cell-based, murine; conditions: series of sICAM1 concentrations
Description: Chemotaxis assay was performed as described (Lu et al., 2011) with the following modifications: 10^5 RAW264.7 cells in 100 μl of 0.5% BSA in DMEM were seeded into the upper chamber of 8 μm pore transwell inserts (BD Bioscience) in a 24-well plate. 300 μl of 0.5% BSA in DMEM containing a series of concentrations of recombinant ICAM1 (R&D Systems) was added to the bottom chamber. After 8 h in culture, methanol was added to the bottom chamber to fix migrated cells. Cells in the upper chamber were removed with a cotton swab and stained for 30 mins in 0.2% crystal violet for quantification using a microscope.

RAW264.7 cells [4] = assay: RANKL-induced osteoclast differentiation, TRAP staining; type: cell-based, murine; conditions: for osteoclast differentiation / TRAP+ osteoclasts: 6 days
Description: HeLa and RAW264.7 cells (American Type Culture Collection, ATCC) were maintained in Dulbecco's modified Eagle's medium (DMEM) supplemented with 10% fetal bovine serum (FBS), penicillin/streptomycin (GIBCO), and fungizone. MOCP-5 cells were maintained in αMEM with 10% FBS and antibiotics. MDA-MB-231 parental cells (ATCC) and all sublines (SCP2, SCP4, SCP6, SCP28, SCP46) were maintained in DMEM with 10% FBS and antibiotics. The murine 4T1 and 4T1.2 cells, and human TSU-Pr1, and TSU-PR1-B2 cells were similarly maintained in DMEM with 10% FBS and antibiotics. For osteoclast differentiation assays, cells were treated with indicated concentration of RANKL in DMEM plus 10% FBS, with media changes performed every 2 days. Primary osteoclasts were isolated from bone marrow cells flushed from the tibia of 6-week-old wild type Balb/c mice and filtered through a […] cell-strainer before overnight culture in aMEM with 10% FBS. The following day 1×10^6 non-adherent cells were plated in 6-well plates supplemented with 50 ng/mL M-CSF for 2 days, followed by 50 ng/mL RANKL for an additional 4-5 days, with media changes every 2 days. Human osteoclasts were obtained from Lonza (2T-110) and differentiated by treatment with 33 ng/ml M-CSF and 66 ng/ml RANKL. CM was collected from the indicated sub-confluent tumor cells grown in DMEM with […] for 24 hours. The CM was passed through a 0.2 μm filter before addition to 1×10^5 RAW264.7 or MOCP-5 cells in a 6-well plate. The media was replaced with fresh CM daily. Cells were TRAP stained on day 6 using a leukocyte acid phosphatase kit (Sigma) and TRAP^+-multineucliated cells were quantified as mature osteoclasts. […]

[5] = test system: Pu.1, Nfatc1, Ctsk in RAW264.7 cells; assay: Western blot of Pu.1, Nfatc1, Ctsk after miRNA transfection and RANKL; type: cell-based, murine; conditions: transient miRNA transfection, 50 ng/ml RANKL
Description: SDS lysis buffer (0.05 mM Tris-HCl, 50 mM BME, 2% SDS, 0.1% Bromophenol blue, 10% glycerol) was used to collect protein from cells. Samples were sonicated and heat denatured protein was equally loaded, separated on a 10% SDS-page gel, transferred onto a pure nitrocellulose membrane (BioRad), and blocked with 5% milk. Primary antibodies for immunoblotting included: anti-IκBα (1:1000 dilution, Cell signaling, 44D4), anti-p-p65 (1:500 dilution, Santa Cruz Biotechnology), anti-Pu.1 (5 μg/ml, Abcam, AB88082), anti-Nfatc1 (1 μg/ml, Abcam, AB25916), anti-Ctsk (4 μg/ml, Abcam, AB19027), anti-β-actin (1:5000 dilution, ABcam), for loading control. Membranes were incubated with horseradish peroxidase (HRP)-conjugated anti-mouse secondary antibody (1:2000 dilution, GE Healthcare) or anti-rabbit secondary antibody (1:2000 dilution, GE Healthcare) for 1 h and chemiluminescence signals were detected by ECL substrate (GE Healthcare).
To better examine the capacity of the miRNAs to inhibit osteoclast differentiation, osteoclast markers were examined in RAW264.7 cells transfected with the miRNA of interest, followed by RANKL treatment. FIG. 5F illustrates Western blot analysis for Pu.1, Nfatc1, or Ctsk in RAW264.7 cells after transient transfection with indicated miRNA and treatment with 50 ng/ml RANKL. Data in the figure represent average ±SEM; p values were based on Student's t-test.

RAW264.7 cells [6] = assay: In vitro bone resorption assay on bovine bone slices; type: cell-based, murine; conditions: miRNA transfection, 50 ng/ml RANKL, relative to control cells
Description: 5×10^4 pre-osteoclast cells were seeded onto 1 mm thick slices of bovine bone cut using a diamond saw and sterilized by immersion in 70% ethanol. Cells were cultured for 10 days as indicated in 6-well plates, transferred to fresh plates and washed to remove osteoclasts. Bone slices were stained in a solution of 1% toludine blue in 0.5% sodium tetraborate, destained in PBS plus 1% Triton X-100, and imaged by light microscopy.
In vitro bone resorption assay was then used to measure the effect of ectopic miRNA expression on osteoclast activity. […] Referring to this figures, scale bar represents 200 μm. Results were statistically significant with p<0.01 (**) and p<0.001 (***). […] Since these miRNAs may inhibit osteoclast differentiation or function by targeting different mRNAs, the repression of osteoclast differentiation was further examined using combinations of inhibitory miRNAs. Given that transient transfection with 10 pM of miRNA precursors was sufficient to inhibit up to approximately 90% of osteoclast differentiation, RAW264.7 cells were treated with a combination of miRNAs at a reduced concentration of 1 pM total precursors.

## O=C(Nc1cc(Cl)cc2c1[nH]c1cnccc12)c1cccnc1 [PS1145]
[1]
  sICAM1-induced miRNA expression changes: abrogated
[1]; listed as PS1154
  sICAM1-induced miRNA expression changes: higher levels of miRNA expression

## OPG (receptor)
RANKL
  decrease in osteoclast differentiation of RAW264.7 cells induced by 30 ng/ml RANKL, with 200 ng/ml OPG: > 80%

B1: sICAM1: soluble ICAM1, the cleaved extracellular domain of ICAM1; recombinant ICAM1 (R&D Systems, 796-IC-050) (protein)
chain: QVSIHPREAFLPQGGSVQVNCSSSCKEDLSLGLETQWLKDELESGPNWKLFELSEIGEDSSPLCFENCGTVQSSASATITVYSFPESVELRPLPAWQQVGKDLTLRCHVDGGAPRTQLSAVLLRGEEILSRQPVGGHPKDPKEITFTVLASRGDHGANFSCRTELDLRPQGLALFSNVSEARSLRTFDLPATIPKLDTPDLLEVGTQQKLFCSLEGLFPASEARIYLELGGQMPTQESTNSSDSVSATALVEVTEEFDRTLPLRCVLELADQILETQRTLTVYNFSAPVLTLSQLEVSEGSQVTVKCEAHSGSKVVLLSGVEPRPPTPQVQFTLNASSEDHKRSFFCSAALEVAGKFLFKNQTLELHVLYGPRLDETDCLGNWTWQEGSQQTLKCQAWGNPSPKMTCRRKADGALLPIGVVKSVKQEMNGTYVCHAFSSHGNVTRNVYLTVLYHSQNN
[1]; 50 ng/ml sICAM1, magnified after co-treatment with RANKL
  expression of miRNAs downregulated during osteoclastogenesis: significant inhibition
[2]
  time course of osteoclast marker gene expression: reduced the time necessary for osteoclast differentiation
RAW264.7 cells [3]
  RAW264.7 cell migration: increased migration in a dose dependent manner
RAW264.7 cells [4]; 50 ng/ml sICAM1 alone
  osteoclast differentiation: not sufficient to induce differentiation
RAW264.7 cells [4]; 50 ng/ml sICAM1 and 50 ng/ml RANKL together
  time to osteoclast differentiation: ≤ 2 days
RAW264.7 cells [4]; 50 ng/ml sICAM1 combined with 10 ng/ml RANKL
  osteoclast differentiation: additive effect
RAW264.7 cells [4]; 50 ng/ml sICAM1 with 4 ng/ml RANKL
  TRAP+ osteoclasts: high levels
RAW264.7 cells [4]; low levels of sICAM1 with 4 ng/ml RANKL
  TRAP+ osteoclasts: no effect

B2: miR-33a: miRNA, SEQ ID NO: 74; delivered as pre-miRNA precursor; down-regulated during osteoclastogenesis (nucleic acid, listed as Homo sapiens)
chain: CUGUGGUGCAUUGUAGUUGCAUUGCAUGUUCUGGUGGUACCCAUGCAAUGUUUCCACAGUGCAUCACAG
modifications: pre-miRNA precursor hairpin, chemistry not given here
[5]
  expression of Pu.1, Nfatc1, Ctsk (Western blot): retained expression of all three osteoclast genes
RAW264.7 cells [6]
  bone resorption (osteoclast activity): only a small decrease in bone resorption
RAW264.7 cells [4]; all models tested
  osteoclast maturation and activity: Partial inhibition
